Test results: paper PMC6368601

Target: taxol-stabilized microtubules polymerized from bovine brain tubulin dimers (bovine) (UniProt Q6B856)
Test: co-sedimentation; 100 nM ISB (WT, MTBM or Δ20) with various concentrations of taxol-stabilized microtubules; BRB80, 1 mM DTT, 50 mM NaCl, 20 uM paclitaxel; 15 min at room temperature; 50% glycerol cushion, 279,000 x g; blot with anti-Borealin; apparent Kd from a one-site specific binding fit of three experiments

## ISB^MTBM: INCENP^1-58-Survivin-Borealin(R17E, R19E, K20E) complex (from UniProt Q9NQS7 1-58; O15392 1-142; Q53HL2 1-280)
  Kd: 4.2 µM
